Measured values: patent publication US12698507B2, “Methods and compositions for conferring and/or enhancing herbicide tolerance using protoporphyrinogen IX oxidase of various cyanobacteria or variant thereof” (FarmHannong Co., Ltd., priority 2019, dated 2026)
Residue numbers refer to the chain shown, from its start. Names may count otherwise.

B1: CyPPO19 A167L + F360M: variant of CyPPO19 PPO protein (SEQ ID NO: 1) (protein)
chain: MSEVDVAIVGGGLSGLSLAWRLQQSAPQYSVVLLEASDRLGGNITTQTAEGFVWELGPNSFAPTPALLQLIAEVGLQSELIRGDRHLPRYIYWRGQLYPLQPTRPLALATSNLLSPWGKVRAALGALGFVPPYLGSGDESVNSFFRRHLGQEVAERLVAPFVSGVYLGDPQQLSAAAAFRRIAQLEKLGGGLIAGALHLRRQQAPKPKPPTSVQMRPGELGSFKEGLAALPRAIAQQLKAPIHLQTPVQEITPDPKGGYLLRSGEQTWRARSVVLATPAYQTAELVAPFQPAIARVLATIPYPTVACVVLAYPAGLGRSVRPGFGVLIPRSQGIRTLGTIWSSCLFPQRTPAGWQVFTSMIGGATDPDLASLSEEAIVQQVQQDLNRLLDLPAAKARLLGMKVWRRAIPQYMVGYPEQWQQVTHALSQTPGLFLCSNYAEGVALGDRVEHGNRTAAAVAAYLSGGQP
modifications: Synthetic_PPO of Thermosynechococcus elongatus PKUAC-SCTE542 (comprising GenBank No. CP032152.1)
B2: CyPPO19 A167L + F360T: variant of CyPPO19 PPO protein (SEQ ID NO: 1) (protein)
chain: B1 chain with M360T
modifications: Synthetic_PPO of Thermosynechococcus elongatus PKUAC-SCTE542 (comprising GenBank No. CP032152.1)
B3: CyPPO19 V305L + F360M: variant of CyPPO19 PPO protein (SEQ ID NO: 1) (protein)
chain: B1 chain with L167A, V305L
modifications: Synthetic_PPO of Thermosynechococcus elongatus PKUAC-SCTE542 (comprising GenBank No. CP032152.1)
B4: CyPPO19 V305M + F360I: variant of CyPPO19 PPO protein (SEQ ID NO: 1) (protein)
chain: B1 chain with L167A, V305M, M360I
modifications: Synthetic_PPO of Thermosynechococcus elongatus PKUAC-SCTE542 (comprising GenBank No. CP032152.1)
B5: CyPPO19 A167C + F360V: variant of CyPPO19 PPO protein (SEQ ID NO: 1) (protein)
chain: B1 chain with L167C, M360V
modifications: Synthetic_PPO of Thermosynechococcus elongatus PKUAC-SCTE542 (comprising GenBank No. CP032152.1)
B6: CyPPO19 V305M + F360V: variant of CyPPO19 PPO protein (SEQ ID NO: 1) (protein)
chain: B1 chain with L167A, V305M, M360V
modifications: Synthetic_PPO of Thermosynechococcus elongatus PKUAC-SCTE542 (comprising GenBank No. CP032152.1)
B7: CyPPO19 V305M + F360M: variant of CyPPO19 PPO protein (SEQ ID NO: 1) (protein)
chain: B1 chain with L167A, V305M
modifications: Synthetic_PPO of Thermosynechococcus elongatus PKUAC-SCTE542 (comprising GenBank No. CP032152.1)
B8: CyPPO19 A167C + F360L: variant of CyPPO19 PPO protein (SEQ ID NO: 1) (protein)
chain: B1 chain with L167C, M360L
modifications: Synthetic_PPO of Thermosynechococcus elongatus PKUAC-SCTE542 (comprising GenBank No. CP032152.1)
B9: CyPPO19 A167I + F360L: variant of CyPPO19 PPO protein (SEQ ID NO: 1) (protein)
chain: B1 chain with L167I, M360L
modifications: Synthetic_PPO of Thermosynechococcus elongatus PKUAC-SCTE542 (comprising GenBank No. CP032152.1)
B10: CyPPO19 A167C + F360M: variant of CyPPO19 PPO protein (SEQ ID NO: 1) (protein)
chain: B1 chain with L167C
modifications: Synthetic_PPO of Thermosynechococcus elongatus PKUAC-SCTE542 (comprising GenBank No. CP032152.1)

The molecules below were run on PPO-deficient BT3 E. coli (ΔPPO) (assay: PPO-inhibiting herbicide tolerance test of PPO variants in E. coli (growth on herbicide-containing LB agar)). Settings: CyPPO19 variants in BT3 (ΔPPO) E. coli; LB agar with 0 to 2,000 μM herbicide, 37° C., dark, 16-20 hours.
Type: cell-based
Method in brief: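 Tolerance was scored against wild-type enzyme: '−' for equal growth, one '+' per 10-fold gain, up to '+++++'. ΔPPO BT3 cells carrying variant plasmids, spotted as a 10-fold dilution series from OD600=0.5, grew 16-20 h at 37° C. in the dark on ampicillin LB agar containing 0 to 2,000 μM herbicide.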

Molecule	tolerance level relative to wild type, Carfentrazone	tolerance level relative to wild type, Flumioxazin	tolerance level relative to wild type, Fomesafen	tolerance level relative to wild type, Oxyfluorfen	tolerance level relative to wild type, Saflufenacil	tolerance level relative to wild type, Sulfentrazone	tolerance level relative to wild type, Tiafenacil
B1	+ (‘+’ per each 10-fold resistance)	++++ (‘+’ per each 10-fold resistance)	++ (‘+’ per each 10-fold resistance)	+ (‘+’ per each 10-fold resistance)	++++ (‘+’ per each 10-fold resistance)	++ (‘+’ per each 10-fold resistance)	++++ (‘+’ per each 10-fold resistance)
B2	+ (‘+’ per each 10-fold resistance)	+++ (‘+’ per each 10-fold resistance)	+ (‘+’ per each 10-fold resistance)	+ (‘+’ per each 10-fold resistance)	+++ (‘+’ per each 10-fold resistance)	++ (‘+’ per each 10-fold resistance)	+++ (‘+’ per each 10-fold resistance)
B3	+ (‘+’ per each 10-fold resistance)	++++ (‘+’ per each 10-fold resistance)	+++ (‘+’ per each 10-fold resistance)	++ (‘+’ per each 10-fold resistance)	++++ (‘+’ per each 10-fold resistance)	+ (‘+’ per each 10-fold resistance)	+++ (‘+’ per each 10-fold resistance)
B4	+ (‘+’ per each 10-fold resistance)	++++ (‘+’ per each 10-fold resistance)	+ (‘+’ per each 10-fold resistance)	+ (‘+’ per each 10-fold resistance)	++++ (‘+’ per each 10-fold resistance)	++ (‘+’ per each 10-fold resistance)	++++ (‘+’ per each 10-fold resistance)
B5	+ (‘+’ per each 10-fold resistance)	+++ (‘+’ per each 10-fold resistance)	+ (‘+’ per each 10-fold resistance)	+ (‘+’ per each 10-fold resistance)	+++ (‘+’ per each 10-fold resistance)	+ (‘+’ per each 10-fold resistance)	++++ (‘+’ per each 10-fold resistance)
B6	+ (‘+’ per each 10-fold resistance)	++++ (‘+’ per each 10-fold resistance)	+ (‘+’ per each 10-fold resistance)	++ (‘+’ per each 10-fold resistance)	++++ (‘+’ per each 10-fold resistance)	+ (‘+’ per each 10-fold resistance)	++++ (‘+’ per each 10-fold resistance)
B7	+ (‘+’ per each 10-fold resistance)	++++ (‘+’ per each 10-fold resistance)	+++ (‘+’ per each 10-fold resistance)	++ (‘+’ per each 10-fold resistance)	++++ (‘+’ per each 10-fold resistance)	++ (‘+’ per each 10-fold resistance)	++++ (‘+’ per each 10-fold resistance)
B8	+ (‘+’ per each 10-fold resistance)	+++ (‘+’ per each 10-fold resistance)	+ (‘+’ per each 10-fold resistance)	+ (‘+’ per each 10-fold resistance)	+++ (‘+’ per each 10-fold resistance)	+ (‘+’ per each 10-fold resistance)	+++ (‘+’ per each 10-fold resistance)
B9	+ (‘+’ per each 10-fold resistance)	+++ (‘+’ per each 10-fold resistance)	+ (‘+’ per each 10-fold resistance)	+ (‘+’ per each 10-fold resistance)	+++ (‘+’ per each 10-fold resistance)	+ (‘+’ per each 10-fold resistance)	+++ (‘+’ per each 10-fold resistance)
B10	+ (‘+’ per each 10-fold resistance)	++++ (‘+’ per each 10-fold resistance)	+ (‘+’ per each 10-fold resistance)	++ (‘+’ per each 10-fold resistance)	++++ (‘+’ per each 10-fold resistance)	+ (‘+’ per each 10-fold resistance)	++++ (‘+’ per each 10-fold resistance)
